How the values were obtained:
[1] = system: MAL; experiment: Expression induction experiment with cytokines in cultured T cells derived from peripheral blood (MAL mRNA); type: cell-based, human; settings: 0-48 h, IL-4 2 ng/ml, IL-12 2 ng/ml, IFN-γ 200 ng/ml, IFN-α 100 IU/ml
Protocol: Effects of various cytokines on the MAL expression level were examined. T cells were separated from the peripheral blood sample from an normal healthy subject using the method described in Example 6, and stimulated with the anti-CD3 antibody to induce the cell growth. That is, on a culture plate which was surface-treated with the anti-CD3 antibody, the separated T cells were cultured in a 5% FCS-containing RPMI1640 medium (1 mM sodium pyruvate, 2 mM L-glutamine, 10 U/ml penicillin, 100 μg/ml streptomycin, and 200 U/ml IL-2) at a density of 5×10^5 cells/ml for 5 days. Grown T cells were diluted with the same medium to a density of 5×10^5 cells/ml, and cultured on a non-surface treated plate for further 3 days. The resulting cells were washed with the medium without IL-2, suspended in the medium (without IL-2) supplemented with cytokine for the stimulation at a density of 1×10^6 cells/ml, and cultured under the stimulation for a predetermined period of time. Cells were then collected to prepare RNA. Cytokines used are shown below:
The same medium as that described in Example 3 was used. During the cultivation for 0˜48 h, mRNA for MAL was induced in the case of stimulation with IL-4. […] Induction of MAL expression with IL-4 may indicate the association of MAL with the action of IL-4 in allergic diseases. For example, MAL may act during the differentiation process of T cell into Th2, and also may associate with the production of Th2 cytokines, IL-4, IL-5, and IL-10.

[2] = system: MAL protein; experiment: Induction of MAL protein expression in Jurkat cell line (Western blotting of raft fraction); type: cell-based, human; settings: Jurkat cells, IL-4 2 ng/ml, 32 hours, raft fractions 4, 5, 6
Protocol: Cell lysate was prepared from Jurkat cells that had been stimulated with IL-4 (2 ng/ml) for 32 hours, and subjected to sucrose density gradient centrifugation according to the method of Fernando Martin-Belmonte et al. (Fernando Martin-Belmonte, Rosa Puertollano, Jaime Millan, and Miguel A. Alonso. The MAL Proteolipid Is Necessary for the Overall Apical Delivery of Membrane Protein in the Polarized Epithelial Madin-Darby Canine Kidney and Fischer Rat Thyroid Cell Lines. Molecular Biology of the Cell 11, 2033-2045, June 2000) to separate the raft fraction (fractions 4, 5, and 6). Proteins in each fraction were separated by SDS polyacrylamide gel electrophoresis, and analyzed by Western blotting using antibody against MAL peptide or that against LAT (linker for activation of T cells).

[3] = system: MAL protein; experiment: Induction of MAL protein expression in human peripheral blood T-cells (Western blotting of raft fraction); type: cell-based; settings: IL-4 2 ng/ml, 41 hours, fraction 4
Protocol: Human peripheral blood cells that had been cultured and propagated were similarly stimulated as in Example 7 with IL-4 (2 ng/ml) for 41 hours, and then the MAL protein expression in the raft fraction (fraction 4) was examined by Western blotting. As a result, the induction of the MAL protein expression by IL-4 was confirmed also in the raft of human peripheral blood T-cells (FIG. 8).

Molecule | induction of mRNA for MAL [1] | expression of MAL protein in the raft [2] | MAL protein expression in the raft fraction [3]
IFN-α | No such action was observed |  | 
IFN-γ: cytokine used for stimulation of T cells (protein, UniProt P01579 24-161, looked up) Interferon gamma: QDPYVKEAENLKKYFNAGHSDVADNGTLFLGILKNWKEESDRKIMQSQIVSFYFKLFKNFKDDQSIQKSVETIKEDMNVKFFNSNKKKRDDFEKLTNYSVTDLNVQRKAIHELIQVMAELSPAAKTGKRKRSQMLFRG | No such action was observed |  | 
IL-4: cytokine used for stimulation of T cells (protein, UniProt P05112 25-153, looked up) Interleukin-4: HKCDITLQEIIKTLNSLTEQKTLCTELTVTDIFAASKNTTEKETFCRAATVLRQFYSHHEKDTRCLGATAQQFHRHKQLIRFLKRLDRNLWGLAGLNSCPVKEANQSTLENFLERLKTIMREKYSKCSS | induced | increased | induction
